The values that follow come from paper PMC5344674.

Experiment [1] deals with Orsay virus δ(1–66) (Orsay virus). Briefly: crystal structure; hanging-drop vapor diffusion at 20°C; SAD with SeMet crystals, refined against native data at 2.22 Å.
Experiment [2] concerns the target Orsay virus mini-fusion protein CP-δ(215–485) (Orsay virus). Nature of the experiment: SEC; Superdex 200 gel filtration; elution buffer 50 mM Tris-HCl pH 7.5, 250 mM NaCl, 2-ME, 1 mM NaN3. A general note: SEC sorts molecules by how far they enter the pores of the column.
For experiment [3], the target named is Orsay virus full-length δ protein (Orsay virus). Briefly: AUC; sedimentation velocity, 27.6 μM δ, 20°C, 30,000 rpm, 50 mM TRIS pH 7.5, 250 mM NaCl; PCSA-DS molar mass transformation.
For experiment [4] the target is unchanged. Briefly: native MS; direct infusion by nano-spray, 10ug/mL protein complex in 5% ACN, 0.1% FA, Orbitrap Fusion Lumos; non-denaturing conditions; intact pentamer.

Usually stoichiometry N stands for the number of molecules, sites or subunits per partner or assembly. In experiment [1], “Orsay virus δ(1–66) (domain or fragment)” displayed a stoichiometry N of 5.
On to “Orsay virus mini-fusion protein CP-δ(215–485) (domain or fragment)”, for which the stoichiometry N in experiment [2] is 5.
Turning to “Orsay virus full-length δ protein (natural protein)”, the stoichiometry N in experiment [3] and in experiment [4] was 5 each time.
